In US20170114141A1 (Hoffmann-La Roche, published 2017):

T1: human OX40 on cells (human, UniProt P43489 29-277)
T1 sequence: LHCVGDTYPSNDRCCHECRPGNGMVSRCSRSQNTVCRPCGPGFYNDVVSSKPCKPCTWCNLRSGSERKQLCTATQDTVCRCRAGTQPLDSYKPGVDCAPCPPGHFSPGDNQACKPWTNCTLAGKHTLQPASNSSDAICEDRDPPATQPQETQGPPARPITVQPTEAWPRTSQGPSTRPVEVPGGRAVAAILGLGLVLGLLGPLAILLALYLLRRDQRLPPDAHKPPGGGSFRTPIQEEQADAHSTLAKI

T2: huOX40-SNAP fusion on Hek293 EBNA cells (human, UniProt P43489 29-277, FRET donor Terbium on the SNAP tag)
T2 construct: also called hu OX40 (TagLite); not shown: SNAP tag
T2 sequence: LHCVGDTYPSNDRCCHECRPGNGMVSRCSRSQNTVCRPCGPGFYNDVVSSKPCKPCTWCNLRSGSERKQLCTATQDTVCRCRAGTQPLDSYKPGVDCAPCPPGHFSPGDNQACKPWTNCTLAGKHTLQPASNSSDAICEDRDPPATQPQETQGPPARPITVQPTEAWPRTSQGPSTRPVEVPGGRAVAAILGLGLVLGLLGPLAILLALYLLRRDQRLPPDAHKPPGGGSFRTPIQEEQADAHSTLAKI


Tests used:
human 4-1BB on cells = human 4-1BB on cells (human, UniProt Q07011 24-255); experiment: cell-based or functional assay
human OX40 on cells [1] = biological target: T1, human OX40 on cells; experiment: cell-based or functional assay
human OX40 on cells [2] = biological target: T1, human OX40 on cells; experiment: cell-based or functional assay; remark: listed apart in the source
[3] = biological target: T2, huOX40-SNAP fusion on Hek293 EBNA cells; experiment: TagLite FRET competition against d2-labelled 49B4 IgG, t = 2 h
human OX40 on cells [4] = biological target: T1, human OX40 on cells; experiment: cell-based or functional assay; remark: listed apart in the source

| Binder | EC50 of NFkB activation, HeLa-hu4-1BB-NFkB-luc cells with NIH/3T3-huFAP clone 19 cells (human 4-1BB on cells) [nM] | EC50 of NFkB activation, HeLa-hu4-1BB-NFkB-luc cells with WM-266-4 cells (human 4-1BB on cells) [nM] | EC50 of rescuing suboptimal TCR stimulation, plate-immobilized antibody, pre-activated human CD4 T cells (human OX40 on cells [1]) [nM] | EC50 of NFkB-luciferase activation, HeLa_hOx40_NFkB_luc1 cells with secondary anti-human IgG Fc antibody (human OX40 on cells [2]) [nM] | EC50 [3] [nM] | EC50 of rescuing suboptimal TCR stimulation, plate-immobilized construct, pre-activated human CD4 T cells (human OX40 on cells [4]) [nM] |
| --- | --- | --- | --- | --- | --- | --- |
| 8H9 P329GLALA IgG1 (antibody, V domains shown) VH: QVQLVQSGAEVKKPGSSVKVSCKASGGTFSSYAISWVRQAPGQGLEWMGGIIPIFGTANYAQKFQGRVTITADKSTSTAYMELSSLRSEDTAVYYCAREYGWMDYWGQGTTVTVSS VL: not shown | – | – | 0.003 | 0.66 | – | – |
| 1G4 P329GLALA IgG1 (antibody, V domains shown) VH: QVQLVQSGAEVKKPGSSVKVSCKASGGTFSSYAISWVRQAPGQGLEWMGGIIPIFGTANYAQKFQGRVTITADKSTSTAYMELSSLRSEDTAVYYCAREYGSMDYWGQGTTVTVSS VL: not shown | – | – | 0.697 | 3.59 | – | 0.37 |
| 1G4/FAP P329GLALA IgG1 2 + 2 (bispecific antibody) heavy: not shown light 1: not shown light 2: EIVLTQSPGTLSLSPGERATLSCRASQSVSRSYLAWYQQKPGQAPRLLIIGASTRATGIPDRFSGSGSGTDFTLTISRLEPEDFAVYYCQQGQVIPPTFGQGTKVEIKSSASTKGPSVFPLAPSSKSTSGGTAALGCLVKDYFPEPVTVSWNSGALTSGVHTFPAVLQSSGLYSLSSVVTVPSSSLGTQTYICNVNHKPSNTKVDKKVEPKSCD | – | – | – | – | – | 0.75 |

Other lines, results leading:

| EC50 of NFkB activation, HeLa-hu4-1BB-NFkB-luc cells with NIH/3T3-huFAP clone 19 cells (human 4-1BB on cells) [nM] | EC50 of NFkB activation, HeLa-hu4-1BB-NFkB-luc cells with WM-266-4 cells (human 4-1BB on cells) [nM] | EC50 of rescuing suboptimal TCR stimulation, plate-immobilized antibody, pre-activated human CD4 T cells (human OX40 on cells [1]) [nM] | EC50 of NFkB-luciferase activation, HeLa_hOx40_NFkB_luc1 cells with secondary anti-human IgG Fc antibody (human OX40 on cells [2]) [nM] | EC50 [3] [nM] | EC50 of rescuing suboptimal TCR stimulation, plate-immobilized construct, pre-activated human CD4 T cells (human OX40 on cells [4]) [nM] | Binder |
| --- | --- | --- | --- | --- | --- | --- |
| 0.1 | 0.3 | – | – | – | – | 4-1BB(25G7)/FAP(4B9) 2 + 1 (bispecific antibody, human IgG1, lambda, L234A L235A) heavy 1: not shown heavy 2: not shown light: SSELTQDPAVSVALGQTVRITCQGDSLRSYYASWYQQKPGQAPVLVIYGKNNRPSGIPDRFSGSSSGNTASLTITGAQAEDEADYYCNSLDRRGMWVFGGGTKLTVLGQPKAAPSVTLFPPSSEELQANKATLVCLISDFYPGAVTVAWKADSSPVKAGVETTTPSKQSNNKYAASSYLSLTPEQWKSHRSYSCQVTHEGSTVEKTVAPTECS |
| – | – | 0.591 | 2.42 | 0.87 | – | 49B4 P329GLALA IgG1 (antibody, V domains shown, anti-OX40, human IgG1 P329G LALA; the TagLite assay only says (49B4) IgG, one portion labelled with d2; also called clone 49B4; 49B4 IgG1) VH: QVQLVQSGAEVKKPGSSVKVSCKASGGTFSSYAISWVRQAPGQGLEWMGGIIPIFGTANYAQKFQGRVTITADKSTSTAYMELSSLRSEDTAVYYCAREYYRGPYDYWGQGTTVTVSS VL: DIQMTQSPSTLSASVGDRVTITCRASQSISSWLAWYQQKPGKAPKLLIYDASSLESGVPSRFSGSGSGTEFTLTISSLQPDDFATYYCQQYSSQPYTFGQGTKVEIKR |
| – | – | 0.09 | 2.27 | – | – | 20B7 P329GLALA IgG1 (antibody, V domains shown) VH: QVQLVQSGAEVKKPGSSVKVSCKASGGTFSSYAISWVRQAPGQGLEWMGGIIPIFGTANYAQKFQGRVTITADKSTSTAYMELSSLRSEDTAVYYCARVNYPYSYWGDFDYWGQGTTVTVSS VL: DIQMTQSPSTLSASVGDRVTITCRASQSISSWLAWYQQKPGKAPKLLIYDASSLESGVPSRFSGSGSGTEFTLTISSLQPDDFATYYCQQYQAFSLTFGQGTKVEIKR |
